Experimental data as given in patent US20230374147A1 (HUMMINGBIRD BIOSCIENCE PTE, published 2023).

T1: human BCMA expressed on cells (human, UniProt Q02223 1-184)
T1 construct: the cell line is named under assay; also called wildtype human BCMA
T1 sequence: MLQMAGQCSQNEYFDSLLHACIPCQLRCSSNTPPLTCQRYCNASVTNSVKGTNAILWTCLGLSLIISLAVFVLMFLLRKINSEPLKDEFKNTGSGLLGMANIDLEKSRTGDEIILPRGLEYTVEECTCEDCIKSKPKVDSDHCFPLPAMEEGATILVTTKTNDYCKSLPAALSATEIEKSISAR

T2: recombinant his-tagged human TACI (Sinobiological cat #11937-H08H) (human, UniProt O14836 1-165)
T2 construct: Bought protein; also called Human TACI-His; huTACI; not shown: His tag
T2 sequence: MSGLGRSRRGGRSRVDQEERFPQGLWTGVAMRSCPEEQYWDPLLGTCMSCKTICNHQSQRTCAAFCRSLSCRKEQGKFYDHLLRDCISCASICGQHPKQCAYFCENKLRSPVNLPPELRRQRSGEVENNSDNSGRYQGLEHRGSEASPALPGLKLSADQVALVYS

T3: Cyno TACI-His (Sino Biological, 90976-C08H) (cynomolgus macaque, UniProt G7PTR7 1-165)
T3 construct: Bought protein; also called cynomolgous macaque TACI; CyTACI
T3 sequence: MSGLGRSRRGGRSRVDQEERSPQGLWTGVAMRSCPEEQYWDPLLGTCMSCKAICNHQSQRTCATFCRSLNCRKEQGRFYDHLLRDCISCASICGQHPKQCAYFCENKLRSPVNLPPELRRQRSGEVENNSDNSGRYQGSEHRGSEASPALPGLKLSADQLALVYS

T4: Human BCMA-His (Sino Biological, 10620-H08H) (human, UniProt Q02223 1-54)
T4 construct: not shown: His tag
T4 sequence: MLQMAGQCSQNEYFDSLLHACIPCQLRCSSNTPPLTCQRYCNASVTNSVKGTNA

T5: His-tagged human BCMA (Acro Biosystems, Cat. #BCA-H522y) (human, UniProt Q02223 1-54)
T5 construct: also called huBCMA; P1; not shown: His tag
T5 sequence: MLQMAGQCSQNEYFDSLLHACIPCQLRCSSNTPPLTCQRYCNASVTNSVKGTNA


What was measured:
[1] = target: T1, human BCMA expressed on cells; experiment: flow cytometry, fixed RPMI 8226 cells (BCMA+, TACI+: the cells carry both targets)
[2] = target: T1, human BCMA expressed on cells; experiment: flow cytometry, H929 cells (BCMA+)
[3] = target: T2, recombinant his-tagged human TACI …; experiment: ELISA, coated Human TACI-His
[4] = target: T3, Cyno TACI-His (Sino Biological, …); experiment: ELISA, coated Cyno TACI-His
[5] = target: T6, His-tagged cynomolgous macaque BCMA (Acro Biosystems, BCA-C52H7) (cynomolgus macaque, UniProt Q02223 1-54 (human entry)); experiment: ELISA, coated Cyno BCMA-His
T6 construct: Bought protein; also called cyno BCMA; CyBCMA; not shown: His tag

[6] = target: T7, Human HER3-His (Sino Biological, 10201-H08H) (human, UniProt P21860 20-643); experiment: ELISA, coated His-tagged antigen
T7 construct: Specificity control; also called Human HERS-His

[7] = target: T4, Human BCMA-His (Sino Biological, …); experiment: ELISA, coated Human BCMA-His
[8] = target: T5, His-tagged human BCMA (Acro Biosystems, …); experiment: HDX-MS of the 1:1 complex against free BCMA

Binder | EC50 [1] [nM] | EC50 [2] [nM] | EC50 [3] [nM] | EC50 [4] [nM] | binding result [5] | binding result [6] | EC50 [7] [nM] | binding result [8]
1C8-6A3 hIgG1 (antibody, V domains shown, also called [94]; hu1C8) VH: QVQLVQSGAEVKKPGASVKVSCKASGYTFTNYVMHWVKQKPGQGLEWMGYILPYNDGTKYAQKFQGKVTMTSDKSTSTVYMELSSLTSEDTAVYYCARYDYEGSFDYWGQGTLVTVSS VL: DIQMTQSPSSLSASVGDRVTITCRASQDISNYLNWYQQKPGKAPKLLMCYTSRLHSGVPSRFSGSGSGTDFTLTISSLEQEDFATYYCQQGNTFPPTFGGGTKVEIKR | 0.238 | 0.111 | 1.32 | 0.028 | binds | no binding (tested: 3 µg/ml (highest concentration)) | 0.005 | 
1C8-402 hIgG1 (LALA) (antibody, also called S1) heavy: not shown light: DIQMTQSPSSLSASVGDRVTITCRASQDISNYLSWYQQKPGKAPKLLMRYTSRLHSGVPSRFSGSGSGTDFTLTISSLEQEDFATYYCQQGNLFPPTFGGGTKVEIKRTVAAPSVFIFPPSDEQLKSGTASVVCLLNNFYPREAKVQWKVDNALQSGNSQESVTEQDSKDSTYSLSSTLTLSKADYEKHKVYACEVTHQGLSSPVTKSFNRGEC |  |  |  |  |  |  |  | binds
